Source: patent publication US11072647B2, “TGF-receptor II isoform, fusion peptide, methods of treatment and methods in vitro” (Onsejo Nacional DE Investigation Cientiticay Tecnica, priority 2013, dated 2021)

What was measured:
A549 cells = experiment: MTT proliferation assay in transduced A549 cells with TGFβ-1; type: cell-based, human
Method: Additionally, to check whether TβRII-SE acts as a TGFβ-1 agonist, A459 cells either overexpressing TβRII-SE or not (untransduced cells or UT) were incubated in the presence of increasing concentrations of TGFβ-1 (FIG. 10B). […] However, in cells overexpressing TβRII-SE, proliferation started to decrease at a TGFβ-1 concentration of 0.1 nM compared to the same cell line without the addition of TGF-β1.
A549 cells were transduced with lentiviral vectors at a multiplicity of infection (MOI) of 50 in the presence of 8 μg/ml polybrene. Percentage of eGFP positive cells was measured in a FACscalibur (Becton Dikinson) cytometer.
Cells were harvested, counted, and inoculated at the appropriate concentrations into 96-well plates using a multichannel pipette. After 24 hr, TGF-β1 (10 ng/ml and 20 ng/ml; Sigma) was added to the culture wells, and cultures were incubated for 24 hr and 48 hr at 37° C., under an atmosphere of 5% CO2. MTT (3-(4,5-dimethylthiazol-2-yl)-2,5-diphenyltetrazolium bromide) (Sigma) solution at a concentration of 5 mg/ml was added to the media and the cells were further incubated for 4 hr. After replacing 100 μl of supernatant with 100 μl of DMSO, the absorbance of each well was determined at 540 nm with a SEAC (Sirio S) photometer (Italy). The percentage of cell survival was defined as the relative absorbance of treated versus untreated cells.

[1] = system: TβRII receptors (TβRII-A, TβRII-B and TβRII-SE) mRNA in hASCs; experiment: RT-PCR / qRT-PCR of TβRII isoform mRNA in transduced hASC; type: cell-based, human
Method: To further assess the agonistic role of the TβRII-SE isoform, hASCs were transduced with Lt-TβRII-SE, Lt-TβRIIA-DN, and Lt.eGFP, at an MOI of 150 as described in the examples. Seventy two hours after transduction the percentage of eGFP expressing cells was measured by flow cytometry (FIG. 11A).
mRNA levels of all three isoforms of Type II TGF-β receptor were also quantified by qRT-PCR (FIG. 13).
Total RNA from different primary cultures and cell lines was isolated using the Absolutely RNA kit (Stratagene, La Jolla, Calif., USA). First-strand cDNA was synthesized by mixing 1 μg of DNA free total RNA, 50 pmol primer p(DT)15 (Roche Diagnostics GmbH, Mannheim, Germany), 0.5 mM deoxyribonucleotide triphosphate, 5 mM dithiothreitol, and 1 U Expand Reverse Transcriptase (Roche Diagnostics GmbH). cDNA corresponding to different isoforms of TβRII receptor was detected by PCR amplification in the presence of Expand High Fidelity polymerase (Roche Diagnostics GmbH), 0.2 mM dNTPS, and 0.5 μM of each primer (forward: 5′[…]3′ (SEQ ID No. 10) and reverse: 5′[…]3′ (SEQ ID No. 11) for 35 cycles using the following PCR conditions: 1 min. at 95° C., 1 min. at 55° C., and 1 min. at […]

B1: TβRII-SE: 80 amino acid soluble endogenous isoform of human TGF-β receptor II lacking the transmembrane domain, SEQ ID No. 2 (protein, listed as Homo sapiens)
chain: MGRGLLRGLWPLHIVLWTRIASTIPPHVQKSVNNDMIVTDNNGAVKFPQLCKFCDVRFSTCDNQKSCFSKVHYEGKKKAW
B1 was tested, and the “TGFβ-1 concentration at which proliferation started to decrease” value (A549 cells; cells overexpressing TβRII-SE, increasing TGFβ-1 concentrations (UT cells: 0.2 nM)) was 0.1 nM, the “cell proliferation (MTT)” value (A549 cells; transduced A549 cells, 0.4 nM TGFβ-1 vs untreated) was “proliferate significantly less than the same cells not treated with TGFβ-1” and the “TβRII isoform A expression (RT-PCR, 582 bp band)” value ([1]; transduced hASC) was “downregulates TβRII isoform A expression”. For the same molecule, the “TβRII-A and B variants mRNA levels (qRT-PCR)” value ([1]; transduced hASC vs untransduced) was “decreased dramatically”.
